From paper PMC4039619 (Matrix biology : journal of the International Society for …, 2014) come the findings set out here.

This assay has as its target human recombinant IR-A extracellular domain (Met 1-Lys 944) with C-terminal polyhistidine tag (human, UniProt P06213-2 28-944). Briefly: ELISA. A general note: An ELISA detects its analyte on a solid surface through an enzyme-linked reagent.

B1: human recombinant decorin protein core (natural protein, UniProt P07585 31-359, looked up)
chain: DEASGIGPEVPDDRDFEPSLGPVCPFRCQCHLRVVQCSDLGLDKVPKDLPPDTTLLDLQNNKITEIKDGDFKNLKNLHALILVNNKISKVSPGAFTPLVKLERLYLSKNQLKELPEKMPKTLQELRAHENEITKVRKVTFNGLNQMIVIELGTNPLKSSGIENGAFQGMKKLSYIRIADTNITSIPQGLPPSLTELHLDGNKISRVDAASLKGLNNLAKLGLSFNSISAVDNGSLANTPHLRELHLDNNKLTRVPGGLAEHKYIQVVYLHNNNISVVGSSDFCPPGHNTKKASYSGVSLFSNPVQYWEIQPSTFRCVYVRSAIQLGNYK
Take B1: the Kd was found to be 7.8 nM.

A word on the Kd: it is the free concentration of one partner at which half of the binding sites on the other are occupied at equilibrium, for simple one-to-one binding.
